Measured values as given in paper PMC10385607 (2023).

T1: Human ALCAM (28–501)-6xhistidine tag (human, UniProt Q13740 28-501)
T1 chain: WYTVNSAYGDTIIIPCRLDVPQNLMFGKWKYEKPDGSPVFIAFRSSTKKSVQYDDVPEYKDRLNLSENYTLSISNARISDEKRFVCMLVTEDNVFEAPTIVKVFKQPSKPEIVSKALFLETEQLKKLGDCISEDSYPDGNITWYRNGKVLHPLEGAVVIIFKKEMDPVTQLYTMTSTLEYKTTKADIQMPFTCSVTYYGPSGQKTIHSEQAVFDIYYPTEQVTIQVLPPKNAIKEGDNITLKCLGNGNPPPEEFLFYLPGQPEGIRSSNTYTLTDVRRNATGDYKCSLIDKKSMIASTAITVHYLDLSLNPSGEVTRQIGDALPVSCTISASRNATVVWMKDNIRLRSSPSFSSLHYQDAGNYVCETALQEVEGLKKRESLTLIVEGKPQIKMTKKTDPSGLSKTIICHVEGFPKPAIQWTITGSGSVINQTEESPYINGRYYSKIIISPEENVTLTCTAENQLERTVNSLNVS


Key:
[1] = target: T1, Human ALCAM (28–501)-6xhistidine tag; test: SPR
[2] = target: T1, Human ALCAM (28–501)-6xhistidine tag; test: ELISA; competition with CD6-Fc
[3] = target: T1, Human ALCAM (28–501)-6xhistidine tag; test: SPR

| Binder | Kd [1] [nM] | IC50 [2] [nM] | koff [3] [s⁻¹] |
| --- | --- | --- | --- |
| scFv V20C10NC (scFv, V domains shown) VH: EVQLVESGGGLVQPGGSLRLSCAASGFTFSTGAMSWVRQAPGKGLEWVSAISGTGGTTYYADSVKGRFTISRDNSKNTLYLQMNSLRAEDTAVYYCAKGYVAFDYWGQGTLVTVSS VL: SSVLTQPPSVSVAPGQTARITCQGDSLRSGYASWYQQKPGQAPVLVVYPKMSRPSGIPERFSGSSSGNTATLTISRVEAGDEADYYCNSSPPFSAEVVFGGGTKLTVL | 5.08 | 29.2 | 9.12e-05 |
| scFv OPT (scFv, V domains shown) VH: not shown VL: SSVLTQPPSVSVAPGQTARITCQGDSLRSYYASWYQQKPGQAPVLVVYGKNNRPSGIPERFSGSSSGNTATLTISRVEAGDEADYYCNSSPPFSAEVVFGGGTKLTVL | 12.7 | 69.2 | 0.0011 |
| scFv IF8 (scFv, V domains shown) VH: not shown VL: SSELTQDPAVSVALGQTVRITCQGDSLRSYYASWYQQKPGQAPVLVIYGKNNRPSGIPDRFSGSSSGNTASLTITGAQAEDEADYYCNSSPPFSAEVVFGGGTKLTVL | – | – | 0.00114 |

Continued, values first:

| Kd [1] [nM] | IC50 [2] [nM] | koff [3] [s⁻¹] | Binder |
| --- | --- | --- | --- |
| 2.52 | 31.3 | – | scFv V200G1 (scFv, V domains shown) VH: not shown VL: SSVLTQPPSVSVAPGQTARITCQGDSLRSGYASWYQQKPGQAPVLVVYGKTGRPSGIPERFSGSSSGNTATLTISRVEAGDEADYYCNSSPPFSAEVVFGGGTKLTVL |
| 2.62 | – | 0.000127 | scFv V2D7 (scFv, V domains shown) VH: not shown VL: SSVLTQPPSVSVAPGQTARITCQGDSLRSGYASWYQQKPGQAPVLVVYGKNNRPSGIPERFSGSSSGNTATLTISRVEAGDEADYYCNSSPPFSAEVVFGGGTKLTVL |
